This is an account of results in US7825096B2, “O6-alkylguanine-DNA alkyltransferase inactivators and beta-glucuronidase cleavable prodrugs” (The United States of America as represented by the …, priority 2004, dated 2010).

Type in all cases: biochemical
Substrate in data set [1]: O=C(Nc1nc(OCc2ccccc2)c2nc[nH]c2n1)OCc1ccc(O[C@@H]2O[C@H](C(=O)O)[C@@H](O)[C@H](O)[C@H]2O)c([N+](=O)[O-])c1
Kind of data set: Enzymatic hydrolysis of prodrugs by E. coli β-glucuronidase in MOPS buffer. Particulars: other: E. coli β-glucuronidase, 37° C., pH 7.0. As for the experimental part: (§1) The enzymatic hydrolysis of the prodrugs was investigated with both E. coli and bovine liver β-glucuronidase in MOPS buffer at pH 7.0. Prodrugs and p-nitrobenzyl alcohol (HPLC internal standard) were dissolved in the MOPS buffer (pH 7.0) at 37° C. Enzymatic cleavage was initiated by adding 0.2 Fishman units of E. coli β-glucuronidase (Sigma type IX-A) (42.8 units/mg of protein) or 10 Fishman units of bovine liver β-glucuronidase (Sigma type B-10) (10.2 units/mg of protein) to the incubation buffer. Aliquots (100 μL) of the reaction mixture were withdrawn at various times and were mixed with 100 μL of acetonitrile/0.1 M TEAA (6:4) to quench the enzymatic reaction. Prodrug and product concentrations were determined by HPLC. For determination of enzyme kinetic parameters, prodrug solutions at concentrations between 5 and 300 μM were incubated with a fixed amount of enzyme. Aliquots were withdrawn at time intervals varying from 1 to 20 min and the reactions were quenched as described above. Initial reaction velocities were determined at each substrate concentration. Non-linear regression methods were used to determine KM and Vmax values. Data were processed with Prism 3.0 software.

Substrate in data set [2]: O=C(Nc1nc(OCc2ccccc2)c2ncn([C@H]3C[C@H](O)[C@@H](CO)O3)c2n1)OCc1ccc(O[C@@H]2O[C@H](C(=O)O)[C@@H](O)[C@H](O)[C@H]2O)c([N+](=O)[O-])c1
The data set is described as above. The note with it: other: E. coli β-glucuronidase, 37° C., pH 7.0. As for the experimental part: as §1

Substrate in data set [3]: O=C(Nc1nc(OCc2ccccc2)c2nc[nH]c2n1)OCc1ccc(O[C@@H]2O[C@H](C(=O)O)[C@@H](O)[C@H](O)[C@H]2O)c([N+](=O)[O-])c1
Kind of data set: Enzymatic hydrolysis of prodrugs by bovine liver β-glucuronidase in MOPS buffer. The note with it: other: bovine liver β-glucuronidase, 37° C., pH 7.0. As for the experimental part:
as §1

Substrate in data set [4]: O=C(Nc1nc(OCc2ccccc2)c2ncn([C@H]3C[C@H](O)[C@@H](CO)O3)c2n1)OCc1ccc(O[C@@H]2O[C@H](C(=O)O)[C@@H](O)[C@H](O)[C@H]2O)c([N+](=O)[O-])c1
Described as above. Particulars: other: bovine liver β-glucuronidase, 37° C., pH 7.0. The method, then: as §1

B1: E. coli β-glucuronidase (Escherichia coli K-12) (protein)
chain: MLRPVETPTREIKKLDGLWAFSLDRENCGIDQRWWESALQESRAIAVPGSFNDQFADADIRNYAGNVWYQREVFIPKGWAGQRIVLRFDAVTHYGKVWVNNQEVMEHQGGYTPFEADVTPYVIAGKSVRITVCVNNELNWQTIPPGMVITDENGKKKQSYFHDFFNYAGIHRSVMLYTTPNTWVDDITVVTHVAQDCNHASVDWQVVANGDVSVELRDADQQVVATGQGTSGTLQVVNPHLWQPGEGYLYELCVTAKSQTECDIYPLRVGIRSVAVKGEQFLINHKPFYFTGFGRHEDADLRGKGFDNVLMVHDHALMDWIGANSYRTSHYPYAEEMLDWADEHGIVVIDETAAVGFNLSLGIGFEAGNKPKELYSEEAVNGETQQAHLQAIKELIARDKNHPSVVMWSIANEPDTRPQGAREYFAPLAEATRKLDPTRPITCVNVMFCDAHTDTISDLFDVLCLNRYYGWYVQSGDLETAEKVLEKELLAWQEKLHQPIIITEYGVDTLAGLHSMYTDMWSEEYQCAWLDMYHRVFDRVSAVVGEQVWNFADFATSQGILRVGGNKKGIFTRDRKPKSAAFLLQKRWTGMNFGEKPQQGGKQ
notes: purchased Sigma type IX-A
What is called Km is the concentration of substrate that gives half-maximal velocity. As usually defined, the Vmax is the rate approached at saturating substrate. On to B1, for which, in data set [1], the Km turned out to be 17.0 µM and the maximum rate (Vmax) is 466000 µmol/mg/h. Also, in data set [2], the Km was 41.1 µM and the Vmax amounted to 677000 µmol/mg/h.

B2: bovine liver β-glucuronidase (Bos taurus) (protein)
chain: MLRGSAGAWAVLGPLLWGCGLSLLQGGMLYPRESRSRERKELDGLWSFRADFSDNRRQGFEQQWYRAPLRESGPTLDMPVPSSFNDVGQDGQLRSFVGWVWYEREITLPQRWTEDLGTRVVLRIGSAHYYAIVWVNGVHVLEHEGGHLPFEADISKLVQSGPLSSCRITIAINNTLSPHTLPPGTILYKTDPSMYPKGYFVQNTKFDFFNYAGLHRSVLLYTTPTTYIDDITVTTDMDQDIGLVNYQIIVQGSDHFQVDVSLLDEEGKVMAKGAGAEGQLQVPSAHLWWPYLMHEHPAYLYSLEVKLTAQTAVGPVSDFYTLPVGIRTVAVTKSQFLINGKPFYFRGVNKHEDADIRGKGFDWPLLVKDFNLLRWLGANAFRTSHYPYSEEVLQLCDRYGIVVIDESPGVGIVLVESFSNVSLQHHLEVMEEMIRRDKNHPAVVMWSLANEPASFLKPAGYYFKTLIAHTKALDPSRPVTFVTNTNYEADLGAPYVDIICVNSYYSWYHDYGHMEVIQLQLATQFENWYKAYQKPMIQSEYGADAIEGFHEDPPLMFSEEYQKGLLQQYHVVLDQKRKEYVVGELIWNFADFMTNQSPVRMIGNRKGIFTRQRQPKSAAFLLRERYWKLANETRYQRSAVTSQCVGSGLFTV
notes: bovine liver β-glucuronidase (Sigma type B-10) (10.2 units/mg of protein); purchased Sigma type B-10; host or cells: bovine liver
On to B2, for which the Km in data set [3] came to 244 µM; in data set [4], 362 µM.
